Positions count from the first letter of the chain named. A value given as a limit tells only on which side of the number the result lay.

The subject of data set [1] is AIR-3A (RNA, G4) GGGGAGGCUGUGGUGAGGG
Description: fluorescence enhancement.

The test system of data set [2] is CIL-6A6-1 (DNA, G4, circular (5' and 3' ends ligated)) ATCTCGACTAGTCAGTGGTGGATATGGGGAGGCTGTGGTGAGGGTATGGTTGTCTCGGATTGGTTGTCTCGGAT
The data set is described as follows: fluorescence enhancement.

For data set [3], the system named is CIL-6A6-1A (DNA, G4, circular) ATCTCGACTAGTCAGTGGTGGATATGTGCACACTGTTGTGAACGTATGGTTGTCTCGGATTGGTTGTCTCGGAT
The data set is described as follows: fluorescence enhancement.

Data set [4] has as its target T1, sIL-6R (soluble IL-6 receptor alpha) (human, UniProt P08887 20-355). The data set is described as follows: pull-down, real-time PCR; 1x PBSMT pH 7.2: 137 mM NaCl, 2.68 mM KCl, 8.1 mM Na2HPO4, 1.76 mM KH2PO4, 1 mM MgCl2, 0.025% Tween-20; pull-down 1 h (room temperature in SELEX); MST at 25 C. The following applies: protein: commercial; circular. For orientation: Real-time PCR tracks product formation cycle by cycle.

The target in data set [5] is T2, IL-6 (interleukin-6) (human, UniProt P05231 30-212). Described as above. The conditions noted are these: protein: commercial; circular.
Data set [6] addresses T2, IL-6 (interleukin-6). The data set is described as follows: pull-down, real-time PCR; affinity largely retained; 1x PBSMT pH 7.2: 137 mM NaCl, 2.68 mM KCl, 8.1 mM Na2HPO4, 1.76 mM KH2PO4, 1 mM MgCl2, 0.025% Tween-20; pull-down 1 h (room temperature in SELEX); MST at 25 C. The conditions noted are these: protein: commercial; circular.
The target in data set [7] is T1, sIL-6R (soluble IL-6 receptor alpha). The data set is described as follows: pull-down, real-time PCR; fully functional; 1x PBSMT pH 7.2: 137 mM NaCl, 2.68 mM KCl, 8.1 mM Na2HPO4, 1.76 mM KH2PO4, 1 mM MgCl2, 0.025% Tween-20; pull-down 1 h (room temperature in SELEX); MST at 25 C. The following applies: protein: commercial; circular.
Data set [8] has as its target T2, IL-6 (interleukin-6). The data set is described as above. The conditions noted are these: protein: commercial; circular.
Data set [9] concerns the target T1, sIL-6R (soluble IL-6 receptor alpha). The data set is described as follows: pull-down, real-time PCR; smaller Kd than CIL-6A; value only in figure; 1x PBSMT pH 7.2: 137 mM NaCl, 2.68 mM KCl, 8.1 mM Na2HPO4, 1.76 mM KH2PO4, 1 mM MgCl2, 0.025% Tween-20; pull-down 1 h (room temperature in SELEX); MST at 25 C. The conditions noted are these: protein: commercial; circular; two putative antiparallel G4 motifs.

Data set [10] deals with T2, IL-6 (interleukin-6). Described as above. The conditions noted are these: protein: commercial; circular; two putative antiparallel G4 motifs.
The target in data set [11] is T1, sIL-6R (soluble IL-6 receptor alpha). The data set is described as follows: MST; 1x PBSMT pH 7.2: 137 mM NaCl, 2.68 mM KCl, 8.1 mM Na2HPO4, 1.76 mM KH2PO4, 1 mM MgCl2, 0.025% Tween-20; pull-down 1 h (room temperature in SELEX); MST at 25 C. The conditions noted are these: protein: commercial.
Data set [12] deals with T2, IL-6 (interleukin-6). The description is as above. The following applies: protein: commercial; linear.
[13] abbreviates: order of intensities similar to ThT.

T1 sequence (P08887 20-355): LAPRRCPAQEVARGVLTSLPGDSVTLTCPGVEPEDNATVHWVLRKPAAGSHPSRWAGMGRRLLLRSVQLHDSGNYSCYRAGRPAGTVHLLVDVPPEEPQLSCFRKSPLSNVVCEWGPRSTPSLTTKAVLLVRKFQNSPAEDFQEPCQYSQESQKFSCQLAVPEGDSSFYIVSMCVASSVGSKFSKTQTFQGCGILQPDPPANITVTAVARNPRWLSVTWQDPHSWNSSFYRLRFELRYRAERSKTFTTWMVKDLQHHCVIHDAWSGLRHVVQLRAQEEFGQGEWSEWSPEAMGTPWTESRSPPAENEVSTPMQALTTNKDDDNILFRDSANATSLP
T2 sequence (P05231 30-212): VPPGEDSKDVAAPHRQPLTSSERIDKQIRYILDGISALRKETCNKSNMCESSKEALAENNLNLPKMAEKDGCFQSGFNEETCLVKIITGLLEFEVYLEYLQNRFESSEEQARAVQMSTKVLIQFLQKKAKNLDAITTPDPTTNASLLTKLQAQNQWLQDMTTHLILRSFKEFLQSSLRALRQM

As to `CCc1c(C)c2cc3nc(cc4nc(cc5c(CC)c(C)c(cc1[nH]2)n5C)C(C)=C4CCC(=O)O)C(CCC(=O)O)=C3C`, the binding result is recorded as “yes” in data set [1] (setting [13]); “yes” in data set [2] (fluorescence decreased by added 50 and 100 mM Li+); “yes” in data set [3] (setting [13]).

For the molecule `Cc1ccc2c(c1)sc(-c1ccc(N(C)C)cc1)[n+]2C`, the binding entry is recorded as “yes” in data set [1] (excitation 425 nm, second highest intensity, with or above CIL-6A6-1A); “yes” in data set [2] (excitation 425 nm, highest intensity of the five sequences); “yes” in data set [3] (excitation 425 nm, intensity below CIL-6A6-1).

B1: CIL-6C (ssDNA)
DNA: ATCTCGACTAGTCATATGGTGTAGATCCTTGGGGAGGCTGTGGTGAGGGGGTTGAAGGTAGTTGCTCGTTGTCTCGGAT
modifications: circular
For B1, the binding result (in [4]; with IL-6 (interleukin-6) [5]) was “binds” in each case.

B2: CIL-6A46 (ssDNA)
DNA: ATCTCGACTAGTCAGGGATATGGGGAGGCTGTGGTGAGGGTATGGTTGTCTCGGATTGGTTGTCTCGGAT
modifications: circular
Regarding B2, the binding result (in [4]; with IL-6 (interleukin-6) [5]) was “binds” in each case.

B3: CIL-6B (ssDNA)
DNA: ATCTCGACTAGTCAGGTGTTGTAATGGTAAGGGGAGGCTGTGGTGAGGGTTGGTTGTCACGGATAGTTGTGTCTCGGAT
modifications: circular
For the molecule B3, in data set [4], the binding result is “binds”.

B4: CIL-6A-C (ssDNA)
DNA: ATCTCGACTAGTCAGTGGTGGATACCGGATTTTTTTTTTTTTTTTTTTTTATGGTTGTCTCGGATTGGTTGTCTCGGAT
modifications: circular
As to B4, the binding result with IL-6 (interleukin-6) [6] is listed as “binds”; in data set [4], “no binding”.

B5: CIL-6A (ssDNA)
DNA: ATCTCGACTAGTCAGTGGTGGATACCGGATGGGGAGGCTGTGGTGAGGGTATGGTTGTCTCGGATTGGTTGTCTCGGAT
modifications: circular (5'-3' ligated)
Regarding B5, the Kd – broadly, the concentration at which binding is half-saturated – in [4] was found to be 6.9 nM; with IL-6 (interleukin-6) [5], 8.5 nM.

B6: CIL-6A4 (ssDNA)
DNA: B5 DNA with G17T, G18T
modifications: circular
In the case of B6, the binding result (in data set [7]; with IL-6 (interleukin-6) [8]) was “binds” in each case.

B7: CIL-6A6 (ssDNA)
DNA: B5 DNA with C25T, C26T, G27T, G28T, A29T
modifications: circular
For the molecule B7, the binding result (in [7]; with IL-6 (interleukin-6) [8]) was “binds” each time.

B8: CIL-6A6-1 (structured_DNA)
DNA: ATCTCGACTAGTCAGTGGTGGATATGGGGAGGCTGTGGTGAGGGTATGGTTGTCTCGGATTGGTTGTCTCGGAT
modifications: circular
Turning to B8, the dissociation constant (Kd) is less than 6.9 nM in data set [9] and less than 8.5 nM with IL-6 (interleukin-6) [10].

B9: IL-6A6-1 (linear form of CIL-6A6-1) (ssDNA)
DNA: B8 DNA
modifications: linear
Take B9: the binding result (in [11] (linear); with IL-6 (interleukin-6) [12]) was “no binding” throughout.

B10: CIL-6A4-1 (ssDNA)
DNA: ATCTCGACTAGTCAGGGATACCGGATGGGGAGGCTGTGGTGAGGGTATGGTTGTCTCGGATTGGTTGTCTCGGAT
modifications: circular
For B10, the binding result (in [4]; in the data set with IL-6 (interleukin-6) [5]) was “binds” throughout.

In data set [11] (G4, 2-tiered), GGGGAGGCUGUGGUGAGGG (structured_RNA) [AIR-3A] displayed a Kd of 67.5 nM.

B11: CIL-6A-R (ssDNA)
DNA: ATCTCGACTATTTTTTTTTTTTTTTTTTTTGGGGAGGCTGTGGTGAGGGTTTTTTTTTTTTTTTTTTTTTGTCTCGGAT
modifications: circular
In the case of B11, in the data set with IL-6 (interleukin-6) [5], the binding result is listed as “no binding”.

B12: CIL-6D (ssDNA)
DNA: ATCTCGACTAGTTAGACGCTACGTGCGGATGGGGAGGCTGTGGTGAGGGTTGGTGTTCTCGGATGATGGTGTCTCGGAT
modifications: circular
Consider B12, for which the binding result in data set [4] is given as “binds”.

For the origin of these results see paper PMC11323322.
